Source: FireProtDB (doi:10.1021/bi00123a002)
“And” between values parts separate entries of the source, which are not always exact repeats. Equal entries are not always repeated.

Conditions: Salmonella typhimurium (strain LT2 / SGSC1412 / ATCC 700720), pH 7.8, 25 °C, Urea, CD, Potassium phosphate 10 mM, reversible: yes, whole UniProt chain shown

B1: Tryptophan synthase alpha chain wild type, P00929 (protein)
chain: MERYENLFAQLNDRREGAFVPFVTLGDPGIEQSLKIIDTLIDAGADALELGVPFSDPLADGPTIQNANLRAFAAGVTPAQCFEMLALIREKHPTIPIGLLMYANLVFNNGIDAFYARCEQVGVDSVLVADVPVEESAPFRQAALRHNIAPIFICPPNADDDLLRQVASYGRGYTYLLSRSGVTGAENRGALPLHHLIEKLKEYHAAPALQGFGISSPEQVSAAVRAGAAGAISGSAIVKIIEKNLASPKQMLAELRSFVSAMKAASRA
With B1 the unfolding free energy was 13.2 kcal/mol, the denaturant m value (transition: 3) was 2.68 kcal/mol/M and 1.6 kcal/mol/M and the “denaturant midpoint (higher = more stable)” value (transition: 3) was 2.75 M and 3.64 M. For the same protein, the unfolding free energy (transition: 3) was 7.35 kcal/mol and 5.81 kcal/mol.
